In the RNAGym collection of RNA variant scans (doi:10.1093/molbev/msab373):

B1: Azoarcus group I ribozyme (parent)
chain: GUGCCUUGCGCCGGGAAACCACGCAAGGGAUGGUGUCAAAUUCGGCGAAACCUAAGCGCCCGCCCGGGCGUAUGGCAACGCCGAGCCAAGCUUCGGCGCCUGCGCCGAUGAAGGUGUAGAGACUAGACGGCACCCACCUAAGGCAAACGCUAUGGUGAAGGCAUAGUCCAGGGAGUGGCGAAAGUCACACAAACCGG

Variants of: B1
Test: reverse-splicing fitness (ratio to wild type); higher = more active; in vitro selection; Mg2+ level not given
Summary of the method: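 An in vitro group I ribozyme library with randomized positions was T7-transcribed and gel-purified. In triplicate, 10 pmol RNA in EPPS pH 7.5 was reacted with 50 pmoles of a 30-nt RNA substrate for 1 h at 37 °C across several added MgCl2 levels (1–48 mM), then stopped with EDTA. Products were reverse transcribed from a substrate-complementary primer, PCR-amplified and sequenced (HiSeq 4000). Fitness is a variant's read proportion after selection over that before, normalised to wild type.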

Going from C82A A145U C150U C169G U176G to C82A A145U C150U C169G U176A, the reverse-splicing fitness rises from 0.00539 to 0.0124.

Going from C82A A145U C150U C169G U176C to C82A A145U C150G C169A U176A, the reverse-splicing fitness falls from 0.013 to 0.0118.

First: C82A A145U C150G C169A U176G
Second: C82A A145U C150G C169A U176C
The reverse-splicing fitness of the first is lower: 0.00583 for the first, 0.00974 for the second.

First: C82G A111C A120C A145C C150A U176A
Second: C82G A111C A120C A145C C150A U176C
The reverse-splicing fitness of the first is lower: 0.00989 for the first, 0.0115 for the second.

Going from C82G A111C A120C A145C C150A U176G to C82A C150G, the reverse-splicing fitness rises from 0.00623 to 0.0487.

First: C82A C150U
Second: C82A C150A
The reverse-splicing fitness of the first is higher: 0.367 for the first, 0.0666 for the second.

Compared with C82A A145U C150U C169U, C82A A145U C150U C169G is lower in reverse-splicing fitness: 0.0127 for the first, 0.00961 for the second.

Compared with C82A A145U C150U C169A, C82A C150G C169A U176A is higher in reverse-splicing fitness: 0.00956 for the first, 0.0112 for the second.

First: C82A C150G C169A U176G
Second: C82A C150G C169A U176C
The reverse-splicing fitness of the first is lower: 0.00678 for the first, 0.0111 for the second.

First: C82A A120U C150U
Second: C82A A120U C150G
The reverse-splicing fitness of the first is higher: 0.0723 for the first, 0.0131 for the second.

Compared with C82A A145C C169A U176A, C82A A145C C169A U176G is lower in reverse-splicing fitness: 0.0087 for the first, 0.00487 for the second.

Compared with C82A A145C C169A U176C, C82A A145G C150U U176A is higher in reverse-splicing fitness: 0.00644 for the first, 0.287 for the second.

Going from C82A A145G C150U U176C to C82A A145G C150U U176G, the reverse-splicing fitness falls from 0.363 to 0.0838.

First: C82G A111C A120C A145C C150G C169A U176C
Second: C82G A111C A120C A145C C150G C169A U176A
The reverse-splicing fitness of the first is lower: 0.00796 for the first, 0.00832 for the second.

First: C82G A111C A120C A145C C150G C169A U176G
Second: C82A A145G C150G C169U U176A
The reverse-splicing fitness of the first is lower: 0.00733 for the first, 0.0117 for the second.

Compared with C82A A145G C150G C169U U176G, C82A A145G C150G C169U U176C is higher in reverse-splicing fitness: 0.00762 for the first, 0.0136 for the second.

Compared with C82A A145G C150A C169U U176A, C82A A145G C150A C169U U176C is lower in reverse-splicing fitness: 0.0138 for the first, 0.0137 for the second.

First: C82A A145G C150A C169U U176G
Second: C82A A145G C150G
The reverse-splicing fitness of the first is lower: 0.00699 for the first, 0.0693 for the second.

First: C82A A145G C150U
Second: C82A A145G C150A
The reverse-splicing fitness of the first is higher: 0.544 for the first, 0.0995 for the second.

First: C82A A145U C150A C169U U176G
Second: C82A A145U C150A C169U U176C
The reverse-splicing fitness of the first is lower: 0.00584 for the first, 0.013 for the second.

Going from C82A A145U C150A C169U U176A to C82A A145G C150U C169U U176G, the reverse-splicing fitness falls from 0.0139 to 0.00555.

First: C82A A145G C150U C169U U176C
Second: C82A A145G C150U C169U U176A
The reverse-splicing fitness of the first is higher: 0.0136 for the first, 0.0129 for the second.

Compared with C82A A120U C150G C169A U176A, C82A A120U C150G C169A U176C is lower in reverse-splicing fitness: 0.00498 for the first, 0.00411 for the second.

Going from C82A A120U C150G C169A U176G to C82A A120U C150U C169G U176C, the reverse-splicing fitness rises from 0.00312 to 0.00363.

Going from C82A A120U C150U C169G U176G to C82A A120U C150U C169G U176A, the reverse-splicing fitness rises from 0.00165 to 0.00534.

Compared with C82A A145G C169G U176C, C82A A145G C169G U176A is lower in reverse-splicing fitness: 0.0324 for the first, 0.0218 for the second.

First: C82A A145G C169G U176G
Second: C82A A145U C169U U176A
The reverse-splicing fitness of the first is lower: 0.00481 for the first, 0.0117 for the second.

Going from C82A A145U C169U U176G to C82A A145U C169U U176C, the reverse-splicing fitness rises from 0.00434 to 0.0127.

Compared with C82A A145U C150U C169U U176A, C82A A145U C150U C169U U176C is higher in reverse-splicing fitness: 0.0118 for the first, 0.0131 for the second.

Compared with C82A A145U C150U C169U U176G, C82A C150A U176C is higher in reverse-splicing fitness: 0.00508 for the first, 0.0632 for the second.

Compared with C82A C150A U176G, C82A C150A U176A is higher in reverse-splicing fitness: 0.021 for the first, 0.0524 for the second.

Compared with C82A A145C C150G C169A U176A, C82A A145C C150G C169A U176G is lower in reverse-splicing fitness: 0.00836 for the first, 0.00669 for the second.

Going from C82A A145C C150G C169A U176C to C82A C150A C169U, the reverse-splicing fitness rises from 0.00619 to 0.00897.

Going from C82A C150A C169G to C82A C150A C169A, the reverse-splicing fitness rises from 0.00927 to 0.0109.

Compared with C82A A145G C150G C169G U176C, C82A A145G C150G C169G U176G is lower in reverse-splicing fitness: 0.0134 for the first, 0.00659 for the second.

First: C82A A145G C150G C169G U176A
Second: C82A A120U U176A
The reverse-splicing fitness of the first is lower: 0.0112 for the first, 0.0313 for the second.

Going from C82A A120U U176G to C82A A120U U176C, the reverse-splicing fitness rises from 0.0095 to 0.0627.

Going from C82G A111C A120C to C82A C150U U176A, the reverse-splicing fitness rises from 0.0556 to 0.24.

Going from C82A C150U U176G to C82A C150U U176C, the reverse-splicing fitness rises from 0.069 to 0.253.

Going from C82G A111C A120C A145C C150A C169G U176G to C82G A111C A120C A145C C150A C169G U176C, the reverse-splicing fitness rises from 0.00758 to 0.0215.

Going from C82G A111C A120C A145C C150A C169G U176A to C82A C169A U176G, the reverse-splicing fitness falls from 0.0271 to 0.00441.

For C82A C169A U176C, the reverse-splicing fitness was 0.0166.
